Laboratory results reported in article PMC7505474, “Toll-like receptor 4-mediated inflammation triggered by extracellular IFI16 is enhanced by lipopolysaccharide binding” (PLoS Pathogens, 2020).

Key:
[1] = target: T1, Recombinant TLR4/MD2 complex (R&D Systems 3146-TM-050/CF) (UniProt O00206 24-631; Q9Y6Y9 19-160); assay: SPR; Biacore X100; TLR4/MD2 complex immobilised on a CM5 chip by amine coupling (1,223.9 RU); analyte is IFI16 pre-complexed with LPS-EB (IFI16/LPS-EB complex), 31.25-1,000 nM, 30 μl/min, 25°C, HBS-EP+ buffer; association 120 s, dissociation 180 s; 1:1 binding model; conditions: both partners purified
T1 construct: Toll-like receptor 4 chain of the bought recombinant TLR4/MD2 complex; neither species nor construct limits are stated; MD2 (lymphocyte antigen 96) chain of the bought recombinant TLR4/MD2 complex; also called TLR4/MD2 receptor; source: bought: R&D Systems
T1 sequence (O00206 24-631, chain 1 of 2): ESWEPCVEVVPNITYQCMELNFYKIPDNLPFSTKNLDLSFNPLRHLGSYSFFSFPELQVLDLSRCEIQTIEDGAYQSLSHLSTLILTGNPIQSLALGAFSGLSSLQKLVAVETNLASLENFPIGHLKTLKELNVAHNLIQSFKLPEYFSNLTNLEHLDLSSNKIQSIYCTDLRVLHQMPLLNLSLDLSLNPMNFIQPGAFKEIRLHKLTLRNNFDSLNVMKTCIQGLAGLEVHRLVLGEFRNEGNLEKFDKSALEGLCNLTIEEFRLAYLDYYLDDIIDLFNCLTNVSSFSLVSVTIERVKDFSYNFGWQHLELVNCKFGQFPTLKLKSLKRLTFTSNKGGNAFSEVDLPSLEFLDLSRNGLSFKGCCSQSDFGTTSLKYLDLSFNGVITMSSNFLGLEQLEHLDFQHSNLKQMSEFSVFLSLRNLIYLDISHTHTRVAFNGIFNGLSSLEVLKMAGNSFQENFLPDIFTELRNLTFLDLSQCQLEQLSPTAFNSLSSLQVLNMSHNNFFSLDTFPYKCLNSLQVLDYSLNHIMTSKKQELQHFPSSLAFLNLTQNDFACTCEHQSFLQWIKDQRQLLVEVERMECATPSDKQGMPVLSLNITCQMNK
T1 sequence (Q9Y6Y9 19-160, chain 2 of 2): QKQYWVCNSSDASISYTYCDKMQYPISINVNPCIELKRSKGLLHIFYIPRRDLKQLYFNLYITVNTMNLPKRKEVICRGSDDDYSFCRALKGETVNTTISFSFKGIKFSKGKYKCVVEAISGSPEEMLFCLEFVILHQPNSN

[2] = target: T1, Recombinant TLR4/MD2 complex (R&D …); assay: SPR; Biacore X100; TLR4/MD2 complex immobilised on a CM5 chip by amine coupling (1,223.9 RU); IFI16 alone 31.25-1,000 nM flowed at 30 μl/min, 25°C, HBS-EP+ buffer; association 120 s, dissociation 180 s; 1:1 binding model; conditions: both partners purified

B1: human recombinant IFI16 protein (natural protein, UniProt Q16666-2 1-729, looked up)
chain: MGKKYKNIVLLKGLEVINDYHFRMVKSLLSNDLKLNLKMREEYDKIQIADLMEEKFRGDAGLGKLIKIFEDIPTLEDLAETLKKEKLKVKGPALSRKRKKEVDATSPAPSTSSTVKTEGAEATPGAQKRKKSTKEKAGPKGSKVSEEQTQPPSPAGAGMSTAMGRSPSPKTSLSAPPNSSSTENPKTVAKCQVTPRRNVLQKRPVIVKVLSTTKPFEYETPEMEKKIMFHATVATQTQFFHVKVLNTSLKEKFNGKKIIIISDYLEYDSLLEVNEESTVSEAGPNQTFEVPNKIINRAKETLKIDILHKQASGNIVYGVFMLHKKTVNQKTTIYEIQDDRGKMDVVGTGQCHNIPCEEGDKLQLFCFRLRKKNQMSKLISEMHSFIQIKKKTNPRNNDPKSMKLPQEQRQLPYPSEASTTFPESHLRTPQMPPTTPSSSFFTKKSEDTISKMNDFMRMQILKEGSHFPGPFMTSIGPAESHPHTPQMPPSTPSSSFLTTLKPRLKTEPEEVSIEDSAQSDLKEVMVLNATESFVYEPKEQKKMFHATVATENEVFRVKVFNIDLKEKFTPKKIIAIANYVCRNGFLEVYPFTLVADVNADRNMEIPKGLIRSASVTPKINQLCSQTKGSFVNGVFEVHKKNVRGEFTYYEIQDNTGKMEVVVHGRLTTINCEEGDKLKLTCFELAPKSGNTGELRSVIHSHIKVIKTRKNKKDILNPDSSMETSPDFFF
notes: IFI16, human, full-length recombinant protein; The domains were cloned in pET30a and made 'following the same procedure as that for the full-length protein'; In assay a3 and in part of a4 the protein was pre-incubated O/N at 4°C with LPS-EB, which is not a protein; also called full-length IFI16; endotoxin-free IFI16; source: recombinant, produced as previously described [24], purified, endotoxins …
Kd [1]: 4.01 µM | koff [1]: 0.0143 s⁻¹ | kon [1]: 3570 M⁻¹ s⁻¹ | Kd [2]: 0.677 µM | koff [2]: 0.00614 s⁻¹ | kon [2]: 9070 M⁻¹ s⁻¹
